Among the data in patent US20260265354A1 (JIANGSU MABWELL HEALTH PHARMACEUTICAL R AND D, published 2026) are OD detection value values, retold here.

Assay [1] addresses T1, Nectin-like-4 (UniProt Q8NFZ8 21-324, limits assumed).
T1 construct: Bought recombinant protein; also called CADM4; IgSF4C
T1 sequence (looked up): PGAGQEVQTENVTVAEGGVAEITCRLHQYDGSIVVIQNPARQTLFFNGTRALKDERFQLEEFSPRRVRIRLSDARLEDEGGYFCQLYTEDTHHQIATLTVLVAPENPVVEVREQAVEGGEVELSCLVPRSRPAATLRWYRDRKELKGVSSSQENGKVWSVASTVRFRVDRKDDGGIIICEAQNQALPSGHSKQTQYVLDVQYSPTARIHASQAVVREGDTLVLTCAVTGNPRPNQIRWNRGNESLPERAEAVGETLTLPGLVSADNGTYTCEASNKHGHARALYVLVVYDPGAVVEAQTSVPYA
Briefly: ELISA, coated antigen, 0 ng/ml antibody (blank control). How it is done: (§1) Coating: Nectin-1, Nectin-2, Nectin-3, Nectin-4, Nectin-like-1, Nectin-like-2, Nectin-like-3, Nectin-like-4, and Nectin-like-5 were diluted to 5 μg/ml in coating buffer (carbonate buffer, pH 9.6) respectively. A 96-well plate was coat with 100 μl per well and incubated overnight at 2-8° C.;
(§2) Sample loading: The plate was taken out, patted dry, and washed twice with 200 μl/well of PBST, then patted dry. The Nectin-4 antibodies prepared in Example 1 (antibody MM11, antibody R012, and antibody R036) were diluted with 1% BSA/PBST to concentrations of 10 μg/ml, 1 μg/ml, 100 ng/ml, and 10 ng/ml, respectively. 1% BSA/PBST solution for dilution was set as a blank control. 100 μl per well was added to the 96-well plate, and incubated at room temperature for 2 hours;
(§3) Reaction termination and plate reading: 100 μl/well of 1 mol/L H3PO4 was added to terminate the reaction and the plated was read. The absorbances of wells in the plate at 450 nm with 650 nm as reference wavelength were read and recorded as OD_{450 nm-650 nm}.
A general note: ELISA stands for enzyme-linked immunosorbent assay.

Assay [2] concerns the target T2, Nectin-like-3 (UniProt Q8N3J6 25-367, limits assumed).
T2 construct: Bought recombinant protein; also called CADM2; IgSF4D
T2 sequence (looked up): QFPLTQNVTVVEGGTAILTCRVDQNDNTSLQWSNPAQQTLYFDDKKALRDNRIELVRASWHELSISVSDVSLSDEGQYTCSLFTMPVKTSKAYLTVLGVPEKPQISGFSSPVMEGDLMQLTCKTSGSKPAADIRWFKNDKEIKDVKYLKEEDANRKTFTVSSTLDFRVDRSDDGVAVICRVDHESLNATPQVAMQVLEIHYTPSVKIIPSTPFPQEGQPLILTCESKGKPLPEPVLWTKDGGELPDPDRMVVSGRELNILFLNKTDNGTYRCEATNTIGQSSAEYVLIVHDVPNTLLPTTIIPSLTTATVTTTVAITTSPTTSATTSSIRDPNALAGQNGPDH
The assay is described as above. How it is done: as §1, §2, §3

In assay [3] the target is T3, Nectin-1 (UniProt Q15223 31-334, limits assumed).
T3 construct: Bought recombinant protein; also called CD111; PVRL-1
T3 sequence (looked up): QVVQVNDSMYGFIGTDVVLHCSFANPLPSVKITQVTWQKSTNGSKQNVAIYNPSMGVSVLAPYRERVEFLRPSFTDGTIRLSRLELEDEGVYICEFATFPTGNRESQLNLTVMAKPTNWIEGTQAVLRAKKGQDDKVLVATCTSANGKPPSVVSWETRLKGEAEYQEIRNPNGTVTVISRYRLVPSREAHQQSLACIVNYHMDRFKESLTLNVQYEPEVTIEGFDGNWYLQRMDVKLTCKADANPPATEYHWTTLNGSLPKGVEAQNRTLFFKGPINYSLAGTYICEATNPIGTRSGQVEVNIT
The assay is described as above. The protocol: as §1, §2, §3

Assay [4] has as its target T4, Nectin-like-1 (UniProt Q8N126 25-330, limits assumed).
T4 construct: Bought recombinant protein; also called CADM3; IgSF4B
T4 sequence (looked up): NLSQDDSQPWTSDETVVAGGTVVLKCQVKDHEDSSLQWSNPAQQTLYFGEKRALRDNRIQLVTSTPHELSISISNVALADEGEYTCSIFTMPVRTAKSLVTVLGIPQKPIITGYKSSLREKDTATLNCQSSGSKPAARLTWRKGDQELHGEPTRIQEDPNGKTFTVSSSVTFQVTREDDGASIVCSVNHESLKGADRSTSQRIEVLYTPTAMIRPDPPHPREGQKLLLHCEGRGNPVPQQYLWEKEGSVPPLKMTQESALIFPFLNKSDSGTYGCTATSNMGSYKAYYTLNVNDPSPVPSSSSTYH
The assay can be described thus: ELISA, coated antigen, antibody at 1000 ng/ml. The protocol: as §1, §2, §3

In assay [5] the target is T5, Nectin-like-2 (UniProt Q9BY67 45-374, limits assumed).
T5 construct: Bought recombinant protein; also called CADM1; IgSF4
T5 sequence (looked up): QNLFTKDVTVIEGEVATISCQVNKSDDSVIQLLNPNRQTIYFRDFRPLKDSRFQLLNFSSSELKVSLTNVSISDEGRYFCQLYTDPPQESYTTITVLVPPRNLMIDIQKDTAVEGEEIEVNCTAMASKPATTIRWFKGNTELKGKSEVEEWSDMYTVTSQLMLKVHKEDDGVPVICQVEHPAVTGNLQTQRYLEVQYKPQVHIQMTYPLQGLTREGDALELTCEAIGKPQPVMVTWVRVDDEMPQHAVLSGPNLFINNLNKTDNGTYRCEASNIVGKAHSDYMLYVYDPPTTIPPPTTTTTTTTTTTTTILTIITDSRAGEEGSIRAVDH
Briefly: ELISA, coated antigen, antibody at 1000 ng/ml. How it is done: as §1, §2, §3

The target of assay [6] is T6, Nectin-like-5 (UniProt P15151 21-343).
T6 construct: Bought recombinant protein; also called CD155; PVR
T6 sequence (looked up): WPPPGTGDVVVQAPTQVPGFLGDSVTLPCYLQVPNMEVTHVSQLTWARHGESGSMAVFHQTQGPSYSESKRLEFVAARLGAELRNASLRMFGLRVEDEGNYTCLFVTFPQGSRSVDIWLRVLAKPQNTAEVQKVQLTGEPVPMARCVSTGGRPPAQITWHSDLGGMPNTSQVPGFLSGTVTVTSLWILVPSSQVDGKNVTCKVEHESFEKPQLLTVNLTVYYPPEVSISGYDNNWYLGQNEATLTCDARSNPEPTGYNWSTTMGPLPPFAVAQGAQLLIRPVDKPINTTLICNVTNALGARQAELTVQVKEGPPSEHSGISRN
The assay can be described thus: ELISA, coated antigen, antibody at 1000 ng/ml. The protocol: as §1, §2, §3

The target in assay [7] is T7, Nectin-3 (UniProt Q9NQS3 58-404, limits assumed).
T7 construct: Bought recombinant protein; also called CD113; PVRL-3
T7 sequence (Q9NQS3 58-404 limits assumed): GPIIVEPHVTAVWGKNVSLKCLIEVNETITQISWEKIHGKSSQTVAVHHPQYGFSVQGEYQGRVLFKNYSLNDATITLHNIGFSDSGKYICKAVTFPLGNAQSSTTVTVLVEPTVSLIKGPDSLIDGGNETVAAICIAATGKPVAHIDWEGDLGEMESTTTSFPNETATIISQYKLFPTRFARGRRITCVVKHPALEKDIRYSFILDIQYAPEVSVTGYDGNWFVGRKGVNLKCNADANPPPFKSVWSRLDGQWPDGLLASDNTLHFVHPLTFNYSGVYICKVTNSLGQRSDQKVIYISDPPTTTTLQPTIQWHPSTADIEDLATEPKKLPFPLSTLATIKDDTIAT
The assay can be described thus: ELISA, coated antigen, antibody at 1000 ng/ml. The protocol:
as §1, §2, §3

B1: Antibody MM11 (antibody, mouse IgG1, kappa, V domains shown)
VH: DVQLQESGPGLVKPSQSLSLTCSVTGYSITSNFYWNWIRQFPGNRLEWMGYISYDGSNNYNPSLKNRISISRDTSKNQFFLKLNSVTTEDTATYYCVRADYWGQGTLVTVSA
VL: DTVMTQTPLSLPVSLGDQASISCRSSQSLESSDGHAYLNWYLQKPGQSPQLLIYRVSNRFSGVLHRFSGSGSGTDFTLKISRVEAEDLGVYFCLQFTHVPFTFGSGTKLEIKR
notes: Mouse monoclonal antibody from hybridoma; also called Nectin-4 mouse monoclonal antibody MM11; mouse antibody MM11
On to B1, for which the OD detection value in assay [1] amounted to 0.008 OD450 nm-650 nm; in assay [2], 0.027 OD450 nm-650 nm; in assay [3], 0.005 OD450 nm-650 nm; in assay [4] it was 0.008 OD450 nm-650 nm; in assay [5], 0.008 OD450 nm-650 nm; in assay [6], 0.008 OD450 nm-650 nm. In assay [7], this molecule gave an OD detection value of 0.008 OD450 nm-650 nm.

B2: Antibody R012 (antibody, V domains shown)
VH: SKSVEESGGRLVTPGTPLTLTCTVSGFSLSTYAMSWVRQAPGKGLEYIGIISGRGTTYYASWLKGRFTISKTSTTVDLKITSPTTEDTATYFCARDAGISDVYTGYFNLWGQGTLVTVSS
VL: QPVLAQLPSASAALGASAKLTCTLSSAHRTYTIAWYQQQQGEAPRYLMMLKSDGSYTKGTGVPDRFSGSSSGADRYLIISSVQAADEADYYCGADDSGGYVFGGGTQLTVTG
notes: Rabbit monoclonal antibody from phage display; also called Nectin-4 rabbit monoclonal antibody R012; rabbit antibody R012
In the case of B2, the OD detection value in assay [1] worked out at 0.008 OD450 nm-650 nm; in assay [2] it was 0.008 OD450 nm-650 nm; in assay [3], 0.007 OD450 nm-650 nm; in assay [4], 0.01 OD450 nm-650 nm; in assay [5] it was 0.007 OD450 nm-650 nm; in assay [6] it was 0.008 OD450 nm-650 nm. The OD detection value in assay [7] was found to be 0.007 OD450 nm-650 nm.

B3: Antibody R036 (antibody, V domains shown)
VH: SQSVEESGGRLVTPGTPLTLTCTVSGFSLSSYAMSWVRQAPGKGLEYIGIIGGRGTTYYAIWAKGRFTISKTSTTVDLKITSPTTEDTATYFCARDAGTTYVGTTYVATGYFNLWGQGTLVTVSS
VL: QPVLTQPPSASAALGASAKLTCTLSSAHKTYTIAWYQQQQGEAPRYLMILKSDGSYTRGTGVPDRFSGSSSGADRYLIISSVQADDEADYYCGADDSGGYVFGGGTQLTVTG
notes: Rabbit monoclonal antibody from phage display; also called Nectin-4 rabbit monoclonal antibody R036; rabbit antibody R036
As to B3, the OD detection value is 0.007 OD450 nm-650 nm in assay [1]; 0.007 OD450 nm-650 nm in assay [2]; 0.007 OD450 nm-650 nm in assay [3]; 0.007 OD450 nm-650 nm in assay [4]; 0.006 OD450 nm-650 nm in assay [5]; 0.009 OD450 nm-650 nm in assay [6]. The molecule also displayed an OD detection value in assay [7] of 0.007 OD450 nm-650 nm.
